T1: EB2 of mouse neurons and mouse brain, Q8R001
T1 chain: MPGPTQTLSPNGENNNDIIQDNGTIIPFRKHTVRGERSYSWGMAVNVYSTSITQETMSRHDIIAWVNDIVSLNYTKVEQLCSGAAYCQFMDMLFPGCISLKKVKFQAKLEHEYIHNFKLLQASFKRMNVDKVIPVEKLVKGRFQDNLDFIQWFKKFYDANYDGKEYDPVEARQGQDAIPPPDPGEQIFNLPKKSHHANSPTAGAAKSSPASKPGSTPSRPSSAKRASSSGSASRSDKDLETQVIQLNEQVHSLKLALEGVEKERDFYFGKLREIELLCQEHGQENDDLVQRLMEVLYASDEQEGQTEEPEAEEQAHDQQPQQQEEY

B1: hCDKL2 (cyclin dependent kinase like 2), 3xFLAG-TwinStrep tagged (protein)
chain: MEKYENLGLVGEGSYGMVMKCRNKDTGRIVAIKKFLESDDDKMVKKIAMREIKLLKQLRHENLVNLLEVCKKKKRWYLVFEFVDHTILDDLELFPNGLDYQVVQKYLFQIINGIGFCHSHNIIHRDIKPENILVSQSGVVKLCDFGFARTLAAPGEVYTDYVATRWYRAPELLVGDVKYGKAVDVWAIGCLVTEMFMGEPLFPGDSDIDQLYHIMMCLGNLIPRHQELFNKNPVFAGVRLPEIKEREPLERRYPKLSEVVIDLAKKCLHIDPDKRPFCAELLHHDFFQMDGFAERFSQELQLKVQKDARNVSLSKKSQNRKKEKEKDDSLVEERKTLVVQDTNADPKIKDYKLFKIKGSKIDGEKAEKGNRASNASCLHDSRTSHNKIVPSTSLKDCSNVSVDHTRNPSVAIPPLTHNLSAVAPSINSGMGTETIPIQGYRVDEKTKKCSIPFVKPNRHSPSGIYNINVTTLVSGPPLSDDSGADLPQMEHQH
B2: mouse CDKL2 (endogenous) (protein)
chain: MEKYENLGLVGEGSYGMVMKCRNKDSGRIVAIKKFLESDDDKMVKKIAMREIKLLKQLRHENLVNLLEVCKKKKRWYLVFEFVDHTILDDLKLFPNGLDYQVVQKYLFQIINGIGFCHSHNIIHRDIKPENILVSQSGVVKLCDFGFARTLAAPGEVYTDYVATRWYRAPELLVGDVKYGKAVDIWAIGCLVIEMLMGQPLFPGESDIDQLHHIMTCLGNLIPRHQELFYKNPVFAGVRLPEVKDAEAEPLESRYPKLPEAVISLAKKCLHIDPDKRPFCADLLRHDFFQMDGFAERFSQELQLKIEKDARNNSLPKKSQNRKKEKDDALGEERKTLVVQDTNADPKIKDSKVFKVKGSKIDVEKMEKGSRASNANCLHDNGTNHKGLASTSLRDCSNVNIDHSRNPGTAIPPLTHNLSAVAPGINAGMGTIPGVQNYRVDEKTKKYCNPFVKPNQPPPAGIYNMNVSTSVSGEKYLLQANKKRKEYPKADVRLPELNYNHLPELRALEGIARNSRLIKKENKCLSESRIPSLAAIDLHVSSVASHQGAGSPLSDDSEADLPRMEHQH
B3: mouse CDKL5 (endogenous) (protein)
chain: MKIPNIGNVMNKFEILGVVGEGAYGVVLKCRHKETHEIVAIKKFKDSEENEEVKETTLRELKMLRTLKQENIVELKEAFRRRGKLYLVFEYVEKNMLELLEEMPNGVPPEKVKSYIYQLIKAIHWCHKNDIVHRDIKPENLLISHNDVLKLCDFGFARNLSEGNNANYTEYVATRWYRSPELLLGAPYGKSVDMWSVGCILGELSDGQPLFPGESEIDQLFTIQKVLGPLPSEQMKLFYSNPRFHGLRFPAVNHPQSLERRYLGILNSVLLDLMKNLLKLDPADRYLTEQCLNHPTFQTQRLLDRSPSRSTKRKPYHVESSTLSNRNQSTKGAALQTHHRSNSKDIQNLSVGLPRAEEGLPANESFLNGNLAGATLSPMHTKTYQASTQPGSSSKDLTNNNIPHLLSPKEAKSKTEFDFNIDTKPSEGPGTKYLKSSTRSQQNRHSFMESSQSKAGTLQPSEKQSRHSYIDTIPQSSRSPSYRTKAKSHGALSDSKSVSNLSEARAQITETNTSRYFPSSCLDLNSPTSPTPTRHTDTRTLLSPSGRNNRNEGTLDSRRTTTRHSKTMEELKLPEHMDSSHSHSLSAPHESFSYGLGYTSPFSSQQRPHRHSMYVTRDKVRAKGLDGSLSIGQGMAARANSLQLLSPQPGEQLPPEMTVARPSVKESSREGASSFHTRQKSEGGVYHDPHSDDGTAPKENRHLYNDPVPRRVGSFYRVPSPRPDNSFHENNVSTRVSSLPSDSSSGTNHSKRQPGFDPWKSPENISHADQLKEKEKQGFFRSMKKKKKKTQTVPNTDGPDLLTLQKAIHSSSTASSRPKEWRPEKLSDLQTQSQPLKSLRKLLHLSSSTNHPASSDPRFQPLTAQQAKNSFSEIRIHPLSQATGGSSNIRQEPTPKGRPALQLPGSSLLRYNGWKHSRSRSSQPDEVIFLASHEKWKQ
B4: CDKL5 (recombinantly expressed) (protein)
chain: MKIPNIGNVMNKFEILGVVGEGAYGVVLKCRHKETHEIVAIKKFKDSEENEEVKETTLRELKMLRTLKQENIVELKEAFRRRGKLYLVFEYVEKNMLELLEEMPNGVPPEKVKSYIYQLIKAIHWCHKNDIVHRDIKPENLLISHNDVLKLCDFGFARNLSEGNNANYTEYVATRWYRSPELLLGAPYGKSVDMWSVGCILGELSDGQPLFPGESEIDQLFTIQKVLGPLPSEQMKLFYSNPRFHGLRFPAVNHPQSLERRYLGILNSVLLDLMKNLLKLDPADRYLTEQCLNHPTFQTQRLLDRSPSRSAKRKPYHVESSTLSNRNQAGKSTALQSHHRSNSKDIQNLSVGLPRADEGLPANESFLNGNLAGASLSPLHTKTYQASSQPGSTSKDLTNNNIPHLLSPKEAKSKTEFDFNIDPKPSEGPGTKYLKSNSRSQQNRHSFMESSQSKAGTLQPNEKQSRHSYIDTIPQSSRSPSYRTKAKSHGALSDSKSVSNLSEARAQIAEPSTSRYFPSSCLDLNSPTSPTPTRHSDTRTLLSPSGRNNRNEGTLDSRRTTTRHSKTMEELKLPEHMDSSHSHSLSAPHESFSYGLGYTSPFSSQQRPHRHSMYVTRDKVRAKGLDGSLSIGQGMAARANSLQLLSPQPGEQLPPEMTVARSSVKETSREGTSSFHTRQKSEGGVYHDPHSDDGTAPKENRHLYNDPVPRRVGSFYRVPSPRPDNSFHENNVSTRVSSLPSESSSGTNHSKRQPAFDPWKSPENISHSEQLKEKEKQGFFRSMKKKKKKSQTVPNSDSPDLLTLQKSIHSASTPSSRPKEWRPEKISDLQTQSQPLKSLRKLLHLSSASNHPASSDPRFQPLTAQQTKNSFSEIRIHPLSQASGGSSNIRQEPAPKGRPALQLPGQMDPGWHVSSVTRSATEGPSYSEQLGAKSGPNGHPYNRTNRSRMPNLNDLKETAL
B5: hICK, 3xFLAG-TwinStrep tagged (protein)
chain: MNRYTTIRQLGDGTYGSVLLGRSIESGELIAIKKMKRKFYSWEECMNLREVKSLKKLNHANVVKLKEVIRENDHLYFIFEYMKENLYQLIKERNKLFPESAIRNIMYQILQGLAFIHKHGFFHRDLKPENLLCMGPELVKIADFGLAREIRSKPPYTDYVSTRWYRAPEVLLRSTNYSSPIDVWAVGCIMAEVYTLRPLFPGASEIDTIFKICQVLGTPKKTDWPEGYQLSSAMNFRWPQCVPNNLKTLIPNASSEAVQLLRDMLQWDPKKRPTASQALRYPYFQVGHPLGSTTQNLQDSEKPQKGILEKAGPPPYIKPVPPAQPPAKPHTRISSRQHQASQPPLHLTYPYKAEVSRTDHPSHLQEDKPSPLLFPSLHNKHPQSKITAGLEHKNGEIKPKSRRRWGLISRSTKDSDDWADLDDLDFSPSLSRIDLKNKKRQSDDTLCRFESVLDLKPSEPVGTGNSAPTQTSYQRRDTPTLRSAAKQHYLKHSRYLPGISIRNGILSNPGKEFIPPNPWSSSGLSGKSSGTMSVISKVNSVGSSSTSSSGLTGNYVPSFLKKEIGSAMQRVHLAPIPDPSPGYSSLKAMRPHPGRPFFHTQPRSTPGLIPRPPAAQPVHGRTDWASKYASRR

Biological target: T1, EB2 of mouse neurons and mouse brain, …

| Protein | phospho-Ser222 EB2 in transfected CDKL5 KO primary cortical neurons | also measured |
| --- | --- | --- |
| B1 | pS222 EB2 is specifically increased in the neurons that express these kinases |  |
| B2 |  | okadaic acid dependent increase of pEB2/EB2 in CDKL5 KO primary neurons after CDKL2 shRNA knockdown: Both shRNAs caused a reduction of the OA dependent increase of pEB2/EB2 |
| B3 |  | pS222 EB2 in primary cortical cultures of CDKL5 KO against wild type littermates: pS222 EB2 is much lower in CDKL5 KOs |
| B4 | pS222 EB2 is specifically increased in the neurons that express these kinases |  |
| B5 | pS222 EB2 is specifically increased in the neurons that express these kinases |  |
